Measurements reported in patent publication US20220267422A1.

Biological target: doppel (Prnd) recombinant protein immobilized on the SPR sensor chip
Assay: SPR, BIAcore T100, recombinant protein immobilized on chip

doppel (Prnd) recombinant protein immobilized on the SPR sensor chip, sequence (Q9UKY0 26-152): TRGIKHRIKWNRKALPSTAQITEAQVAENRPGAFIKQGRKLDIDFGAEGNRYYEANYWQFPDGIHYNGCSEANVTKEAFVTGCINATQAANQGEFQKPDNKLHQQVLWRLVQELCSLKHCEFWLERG

Kd: 308 pM
B1: Human monoclonal antibody 3D1 (antibody, human IgG1, kappa, V domains shown)
VH: EVQLVESGGGLVQPGGSLRLSCAASGFTFSDYAMSWVRQAPGKGLEWVSRISGSGGTKYYADSVKGRFTISRDNSKNTLYLQMNSLRAEDTAVYYCAKHQVYWALDVWGQGTLVTVSS
VL: DIQMTQSPSSLSASVGDRVTITCRASQSISNWLNWYQQKPGKAPKLLIYATSSLQSGVPSRFSGSGSGTDFTLTISSLQPEDFATYYCQQSYSYPWTFGQGTKVEIKR
